Target: T1, 1st beta propeller of human LRP5 (human, UniProt O75197 32-338)
T1 sequence (looked up): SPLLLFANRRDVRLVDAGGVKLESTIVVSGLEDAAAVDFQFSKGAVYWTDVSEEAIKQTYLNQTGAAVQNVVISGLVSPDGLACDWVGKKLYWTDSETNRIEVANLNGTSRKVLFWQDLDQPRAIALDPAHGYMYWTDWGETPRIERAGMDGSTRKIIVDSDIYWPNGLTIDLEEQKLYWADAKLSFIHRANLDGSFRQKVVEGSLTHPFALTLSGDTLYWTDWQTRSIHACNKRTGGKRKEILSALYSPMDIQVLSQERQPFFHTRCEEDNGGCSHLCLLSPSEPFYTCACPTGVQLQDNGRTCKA
Assay: SPR

binding result: binds
B1: Recombinant insect cell-produced human sclerostin (natural protein, UniProt Q9BQB4 24-213, looked up)
chain: QGWQAFKNDATEIIPELGEYPEPPPELENNKTMNRAENGGRPPHHPFETKDVSEYSCRELHFTRYVTDGPCRSAKPVTELVCSGQCGPARLLPNAIGRGKWWRPSGPDFRCIPDRYRAQRVQLLCPGGEAPRARKVRLVASCKCKRLTRFHNQSELKDFGTEAARPQKGRKPRPRARSAKANQAELENAY
